Source: US10227617B2, “Sequestration of carbon dioxide with hydrogen to useful products” (UNIVERSITY OF GEORGIA RESEARCH FOUNDATION, INC., priority 2012, dated 2019)

Assays:
[1] = at 65 C; cited from earlier work
[2] = 4-hydroxybutyryl-CoA dehydratase coupled spectrophotometric assay; type: biochemical; settings: 70° C
Protocol: (§1) 4-hydroxybutyryl-CoA dehydratase (Msed_1321). The enzyme was purified using a 5 ml Bio-Scale Mini Profinity IMAC cartridge (Bio-Rad). The soluble, heat-treated lysate was loaded onto the column with binding buffer (50 mM Tris, 300 mM NaCl, 3.5 mM DTT, 20 mM imidazole, pH 8.0) and the his-tagged enzyme removed with elution buffer (50 mM Tris, 300 mM NaCl, 3.5 mM DTT, 500 mM imidazole, pH 8.0). The fraction collector was positioned inside the anaerobic chamber, and fractions containing enzyme were collected, concentrated, and dialyzed into reaction buffer (100 mM potassium phosphate, pH 7.5, 1 mM DTT). The enzyme solution was either stored at room temperature inside the anaerobic chamber for immediate use or mixed with glycerol to 20% and stored at −20° C. in a sealed vacuum dessicator. Enzyme activity was measured aerobically in a coupled spectrophotometric assay at 70° C. The assay mixture contained 20 mM sodium phosphate, 5 mM MgCl2, 2 mM 4HB, 2 mM ATP, 1 mM CoA, 2 mM NAD^+, 1 mM DTT, 1 mg/ml purified Msed_0406, and 42 ng/ml Msed_0399. The reaction mixture was pre-heated for 5 min at 70° C. to allow accumulation of 4HB-CoA, and then initiated by addition of purified Msed_1321. For the oxygen-sensitivity assay, Msed_1321 was washed with 100 mM potassium phosphate, pH 7.5, to remove any DTT from the reaction buffer. […]

[3] = Oxygen-sensitivity assay of 4-hydroxybutyryl-CoA dehydratase; settings: exposed to air
Protocol: as §1

[4] = Crotonyl-CoA hydratase assay, NAD+ reduction at 340 nm; type: biochemical; settings: C-CoA, hydratase reaction; 70° C
Protocol: (§2) Crotonyl-CoA hydratase/(S)-3-Hydroxybutyryl-CoA dehydrogenase (Msed_0399). The enzyme was purified first using a Q-sepharose HiLoad 16/10 anion exchange column (GE Healthcare). The protein was loaded onto the column with 20 mM Tris, pH 8.0, and eluted with 20 mM Tris, 1 M NaCl, pH 8.0 using a linear elution gradient. Fractions containing Msed_0399 were confirmed with SDS-PAGE, collected and dialyzed into buffer for size exclusion chromatography (50 mM potassium phosphate, 150 mM NaCl, pH 7.0). The partially-purified protein was further separated on a HiLoad 26/600 Superdex 200 PG column, and the elution fractions containing Msed_0399 were collected, concentrated, and dialyzed into reaction buffer (100 mM MOPS, pH 7.5), and then either stored at 4° C. for immediate use or mixed with glycerol to 20% and stored at −20° C. Enzyme activity was measured spectrophotometrically at 70° C. by following NAD^+ reduction at 340 nm (extinction coeffienct at 340 nm=[…]) (Berg et al., 2007. Science 318:1782-1786). The assay mixture contained 20 mM MOPS (pH 7.0), 5 mM MgCl2, 2 mM NAD^+, 0.5 mM crotonyl-CoA or (S)-3-hydroxybutyryl-CoA, and purified enzyme. The reaction mixture was preheated for 2 min at 70° C. and the reaction initiated by addition of substrate.

[5] = (S)-3-Hydroxybutyryl-CoA dehydrogenase assay, NAD+ reduction at 340 nm; type: biochemical; settings: 3HB-CoA, dehydrogenase reaction; 70° C
Protocol: as §2

[6] = substrate: C/C=C/C(=O)SCCNC(=O)CCNC(=O)[C@H](O)C(C)(C)COP(=O)(O)OP(=O)(O)OC[C@H]1O[C@@H](n2cnc3c(N)ncnc32)[C@H](O)[C@@H]1OP(=O)(O)O; experiment: crotonyl-CoA hydratase reaction of Msed_0399, NAD+ reduction at 340 nm; type: biochemical, Metallosphaera sedula; settings: other: Msed_0399 (C-CoA), 70° C., pH 7.0
Description: (§3) The crotonyl-CoA hydratase/(S)-3-hydroxybutyrl-CoA dehydrogenase activity of a polypeptide may be determined by routine methods known in the art. An example of such a polypeptide includes an amino acid sequence encoded by coding sequence Msed_0399 of Genbank accession NC_009440 and disclosed at SEQ ID NO:16.
(§4) Heterologous expression of M. sedula genes in E. coli. Msed_0406, Msed_1321, Msed_0399, and Msed_0656 were amplified from genomic DNA using primers from IDT Technologies (Coralville, Iowa). Msed_0406 was cloned into pET46-Ek/LIC with an N-terminal His6 tag, as described in Example 1. Msed_1321 was cloned with an N-terminal His6 tag into a modified pETA vector, into which the anaerobic hya promoter from E. coli had been inserted to allow for anaerobically-regulated expression (Sun et al., 2010. PLoS One 5:e10526). Msed_0399 was cloned into pET21b without a His-tag, and Msed_0656 was cloned into pCDF-Ek/LIC with an N-terminal His6 tag. All four constructs were individually cloned into NovaBlue GigaSingles E. coli competent cells and selected by growth on LB-agar supplemented with antibiotic. Sequences were confirmed by Eton Biosciences, Inc. (Durham, N.C.). Next, the plasmids were transformed into E. coli Rosetta 2 (DE3) cells for protein expression. Rosetta strains containing pET46-0406, pET21b-0399, and pCDF-0656 were grown and expressed aerobically at 37° C. for 16 h in Studier's auto-inducing medium ZYM-5052 (Studier, 2005. Protein Expression and Purification 41:207-234). Rosetta cells containing pETA-1321 plasmid were grown in a 2 L Applikon bioreactor (37° C., 800 rpm, pH 6.7, 0.5 slpm air) in Studier's non-inducing medium ZYM-505 with 0.5 mM FeCl3. […]
(§5) Crotonyl-CoA hydratase/(S)-3-Hydroxybutyryl-CoA dehydrogenase (Msed_0399). […] Enzyme activity was measured spectrophotometrically at 70° C. by following NAD^+ reduction at 340 nm (extinction coeffienct at 340 nm=[…]) (Berg et al., 2007. Science 318:1782-1786). […]

[7] = substrate: C[C@H](O)CC(=O)SCCNC(=O)CCNC(=O)[C@H](O)C(C)(C)COP(=O)(O)OP(=O)(O)OC[C@H]1O[C@@H](n2cnc3c(N)ncnc32)[C@H](O)[C@@H]1OP(=O)(O)O; experiment: (S)-3-hydroxybutyryl-CoA dehydrogenase reaction of Msed_0399, NAD+ reduction at 340 nm; type: biochemical, Metallosphaera sedula; settings: other: Msed_0399 (3HB-CoA), 70° C., pH 7.0
Description: as §3, §4, §5

[8] = Scherf et al., 1993; cited from earlier work
[9] = Acetoacetyl-CoA β-ketothiolase discontinuous DTNB assay; type: biochemical; settings: 70° C
[10] = substrate: CC(=O)CC(=O)SCCNC(=O)CCNC(=O)[C@H](O)C(C)(C)COP(=O)(O)OP(=O)(O)OC[C@H]1O[C@@H](n2cnc3c(N)ncnc32)[C@H](O)[C@@H]1OP(=O)(O)O; experiment: purified protein, by the assay type; settings: other: Msed_0656, 70° C., pH 7.5; 70.0 °C

In the case of `O=C(O)O` [carbonic acid], the “apparent pKa of the ionization to bicarbonate” value [1] is listed as “about 6.3”.

B1: Msed_1321: M. sedula 4-hydroxybutyryl-CoA dehydratase, SEQ ID NO:15 (protein, listed as Metallosphaera sedula)
chain: MVVRTGEQYLQSISNRSKVEIYVMGREVKDVTKHPFLKPSVMSFKATFDAAWEEDTKELGRAWSPYLEEEINRFNHIHRSPDDLAAKVKLLRKLSHKTGACFQRCVGWDSLNTLHIVTTMMAKKGKTEVRDRFVEYLKYVQKNDLALAGAMTDAKGIRNLKPSQQPNKNAYLRITEVTKDGIYVSGAKANITGVAATEEMVVLPTRAMGPEDKDYAVAFAIPTDTEGVKIVVGRQLNDARRMEEGEIDGLPYFYNHEGLVIFDNVFVPMNRVFLAGEWEYTGTLVEIFSAYHRQGYGGCKAGLGDVIIGASADLAKQIGVDRASHVQDKLTEMIFLTETMYSAGIAASLNAVKMCDNCWWVNPMHANVTKHLVARFPSQIAQLSIDLAGGIVGTAPSEWDLKNPKLKEYISRYLQGAEDFTAEDRLRMVRLVENVSMGVAFQIESVHGAGSPAAQRIMFSRLYDLNFAQEVAKKLAGRKSEVKFTSKAEPWRESQSEAEAKEAGLKS
In the case of B1, the Vmax [2] is reported as 2.2 µmol/min/mg and the “duration of initial activation upon exposure to air” value [3] is reported as “about 15 hours”.

B2: Metallosphaera sedula crotonyl-CoA hydratase/(S)-3-hydroxybutyryl-CoA dehydrogenase Msed_0399, SEQ ID NO:16, recombinant (Metallosphaera sedula DSM 5348) (protein)
chain: MKVTVIGSGVMGHGIAELAAIAGNEVWMNDISTEILQQAMERIKWSLSKLRESGSLKEGVEQVLARIHPETDQAQALKGSDFVIEAVKEDLELKRTIFRNAEAHASPSAVLATNTSSLPISEIASVLKSPQRVVGMHFFNPPVLMPLVEIVRGKDTSDEVVKTTAEMAKSMNKETIVVKDVPGFFVNRVLLRIMEAGCYLVEKGIASIQEVDSSAIEELGFPMGVFLLADYTGLDIGYSVWKAVTARGFKAFPCSSTEKLVSQGKLGVKSGSGYYQYPSPGKFVRPTLPSTSKKLGRYLISPAVNEVSYLLREGIVGKDDAEKGCVLGLGLPKGILSYADEIGIDVVVNTLEEMRQTSGMDHYSPDPLLLSMVKEGKLGRKSGQGFHTYAHEEAKYSTIVVRVEPPLAWIVLNRPTRYNAINGDMIREINQALDSLEEREDVRVIAITGQGRVFSAGADVTEFGSLTPVKAMIASRKFHEVFMKIQFLTKPVIAVINGLALGGGMELALSADFRVASKTAEMGQPEINLGLIPGGGGTQRLSRLSGRKGLELVLTGRRVKAEEAYRLGIVEFLAEPEELESEVRKLANAIAEKSPLAVASAKLAYKLGEETHIWTGTSLEASLFGLLFSTKDFEEGVRAFLEKRKPNFRGE
B2 gave a Vmax [4] of 20 µmol/min/mg, a Vmax [5] of 16 µmol/min/mg and a Km [6] of 70 µM. The Vmax [6] was 20 µmol/min/mg, the kcat [6] was 19 s⁻¹ and the Km [7] was 60 µM. The Vmax [7] was 16 µmol/min/mg and the kcat [7] was 15 s⁻¹.

B3: clostridal homolog: 4-hydroxybutyryl-CoA dehydratase from Clostridium aminobutyricum (protein, UniProt P55792 1-490, looked up)
4-hydroxybutyryl-CoA …: MLMTAEQYIESLRKLNTRVYMFGEKIENWVDHPMIRPSINCVAMTYELAQDPQYADLMTTKSNLIGKTINRFANLHQSTDDLRKKVKMQRLLGQKTASCFQRCVGMDAFNAVFSTTYEIDQKYGTNYHKNFTEYLKYIQENDLIVDGAMTDPKGDRGLAPSAQKDPDLFLRIVEKREDGIVVRGAKAHQTGSINSHEHIIMPTIAMTEADKDYAVSFACPSDADGLFMIYGRQSCDTRKMEEGADIDLGNKQFGGQEALVVFDNVFIPNDRIFLCQEYDFAGMMVERFAGYHRQSYGGCKVGVGDVVIGAAALAADYNGAQKASHVKDKLIEMTHLNETLYCCGIACSAEGYPTAAGNYQIDLLLANVCKQNITRFPYEIVRLAEDIAGGLMVTMPSEADFKSETVVGRDGETIGDFCNKFFAAAPTCTTEERMRVLRFLENICLGASAVGYRTESMHGAGSPQAQRIMIARQGNINAKKELAKAIAGIK
In the case of B3, the “time to irreversible inactivation when exposed to air” value [8] is listed as roughly 25 min.

B4: Metallosphaera sedula acetoacetyl-CoA β-ketothiolase Msed_0656, SEQ ID NO:17, recombinant (Metallosphaera sedula DSM 5348) (protein)
chain: MPDVYIVSAVRTPIGRFGGSLKSVKPQMLGAIAIKEALRRANTDPSRVELTIMGNVLRSGHGQDLARQAALLAGIPWEVDGYCVDMVCSSGMMGVTNAAQMIKSGDADVVVAGGMESMSQSMLAVNSEVRWGVKFLSGKSLNFIDTMLVDGLTDPFNLKLMGQEADMVARERDISRRELDEVAFESHRRAHQAWEKGLFKSEVIPVNLDEGKLERDEGIRPDTTMEKLSSLKPAFTENGYHTAGNSSQISDGAVAMVLMSEKAVKEFGVDPVAKILGYSWVGIESWRFTEAPLYSVRKLLTRLNMNITQFDYFENNEAFAVNNVLFHRYLGVPYDQLNVFGGAIALGHPIGASGARIMVTLLNVLSKMNATRGIASICHGVGGSTAIALELLRPL
Work on B4 yielded a Vmax [9] of 1400 µmol/min/mg, a Km [10] of 180 µM and a Vmax [10] of 1400 µmol/min/mg. It also gave a kcat [10] of 1000 s⁻¹.
